Values of other authors in patent US20240247069A1, “FGFR3 BINDING MOLECULES AND METHODS OF USE THEREOF” (Regeneron Pharmaceuticals, Inc., priority 2023, published 2024).
Where two headings read alike, the source gives them in different places.

B1: MS-Pro-2: anti-FGFR3 Ig-like domain 2 antibody of WO 2002/102972 A2; VH SEQ ID NO:24, VL SEQ ID NO:25 (antibody, V domains shown)
VH: QVQLVQSGAEVKKPGASVKVSCKASGYTFTSYYMHWVRQAPGQGLEWMGWINPNSGGTNYAQKFQGRVTMTRDTSISTAYMELSSLRSEDTAVYYCARDFLGYEFDYWGQGTLVTVSS
VL: DIELTQPPSVSVAPGQTARISCSGDALGDKYASWYQQKPGQAPVLVIYDDSDRPSGIPERFSGSNSGNTATLTISGTQAEDEADYYCQSYDYSADYVFGGGTKLTVLGQ
B2: MS-Pro-29: anti-FGFR3 Ig-like domain 3 antibody of WO 2002/102972 A2; VH SEQ ID NO:40, VL SEQ ID NO:41 (antibody, V domains shown)
VH: QVQLVQSGAEVKKPGASVKVSCKASGYTFTSYYMHWVRQAPGQGLEWMGWINPNSGGTNYAQKFQGRVTMTRDTSISTAYMELSSLRSEDTAVYYCARTWQYSYFYYLDGGYYFDIWGQGTLVTVSS
VL: DIVLTQSPATLSLSPGERATLSCRASQSVSSSYLAWYQQKPGQAPRLLIYGASSRATGVPARFSGSGSGTDFTLTISSLEPEDFATYYCQQTNNAPVTFGQGTKVEIKRT
B3: MS-Pro-28: anti-FGFR3 Ig-like domain 3 antibody of WO 2002/102972 A2; VH SEQ ID NO:38, VL SEQ ID NO:39 (antibody, V domains shown)
VH: QVQLVQSGAEVKKPGSSVKVSCKASGGTFSSYAISWVRQAPGQGLEWMGGIIPIFGTANYAQKFQGRVTITADESSTAYMELSSLRSEDTAVYYCARGGGWVSHGYYYLFDLWGQGTLVTVSS
VL: DIQMTQSPSSLSASVGDRVTITCRASQGISSYLAWYQQKPGKAPKLLIYAASSLQSGVPSRFSGSGSGTDFTLTISSLQPEDFAVYYCFQYGSIPPTFGQGTKVEIKRT

System: FGFR3
[1] = literature antibodies, sequences from cited PCT publications
[2] = Table T-3, exemplary FGFR3 D3 binding sequences from cited PCT publications

Molecule	Activity [1]	Activity [2]
B1	Antagonistic	–
B2	Antagonistic	Antagonistic
B3	Antagonistic	Antagonistic
